Like-named read-outs stand apart in the source and are kept apart here.
B1: phosphoribulokinase of C. reinhardtii (enzyme, UniProt P19824 32-375, looked up)
chain: DKDKTVVIGLAADSGCGKSTFMRRMTSIFGGVPKPPAGGNPDSNTLISDMTTVICLDDYHCLDRNGRKVKGVTALAPEAQNFDLMYNQVKALKEGKSVDKPIYNHVSGLIDAPEKIESPPILVIEGLHPFYDKRVAELLDFKIYLDISDDIKFAWKIQRDMAERGHSLESIKSSIAARKPDFDAYIDPQKKDADMIIQVLPTQLVPDDKGQYLRVRLIMKEGSKMFDPVYLFDEGSTISWIPCGRKLTCSFPGIKMFYGPDTWYGQEVSVLEMDGQFDKLEELIYVESHLSNTSAKFYGEITQQMLKNSGFPGSNNGTGLFQTIVGLKVREVYERIVKKDVVPV
B2: phosphoribulokinase of A. thaliana (enzyme, A. thaliana (endogenous in leaves), UniProt P25697 47-395, looked up)
chain: AQETIVIGLAADSGCGKSTFMRRLTSVFGGAAKPPKGGNPDSNTLISDTTTVICLDDYHSLDRYGRKEQKVTALDPRANDFDLMYEQVKALKNGIAVEKPIYNHVTGLLDPPELIQPPKILVIEGLHPMFDERVRDLLDFSIYLDISNEVKFAWKIQRDMAERGHSLESIKASIEARKPDFDAFIDPQKQYADAVIEVLPTTLIPDDNEGKVLRVRLIMKEGVKYFSPVYLFDEGSTISWIPCGRKLTCSYPGIKFNYEPDSYFDHEVSVLEMDGQFDRLDELIYVESHLSNLSTKFYGEVTQQMLKHADFPGSNNGTGLFQTIVGLKIRDLYEQLIANKATARAEAKA

Legend:
[1] = biological target: the molecule itself; assay: SEC
[2] = biological target: the molecule itself; assay: SEC; remark: listed apart in the source

| Protein | stoichiometry N [1] | stoichiometry N [2] |
| --- | --- | --- |
| B1 | 2 |  |
| B2 |  | 2 |

From paper PMC10433458 (Proceedings of the National Academy of Sciences of the …, 2023)
